According to the DeepSol protein solubility set:

Assay: soluble on expression in E. coli; label from the status in PepcDB or PDB records

Row | Sequence | soluble on expression in E. coli
1 | MSAETYVMEIDGGPGDLHCMKCLKICNYLKDSYCCKKTKNMTLPQKKAESAFLMICLQRNTIELMVTALLANKKIIDSKGNCAFCRNKKQHEEEKWCAGRTKLQLFLHRIDKDELKVEEYLEKYLEIKTRNRMEQLDIVQARIVREMKAVAIAQGKSEEEVEHILAKQGRKARRMQRSEYKHAEEDNKGVRQRLAAKLVAKKSEIIERFCLAQRTVFVKADCPNVYGRTTTHISYLLE | not soluble
2 | SVICCAAVNCSNRQGKGEKRAVSFHRFPLKDSKRLIQWLKAVQRDNWTPTKYSFLCSEHFTKDSFSKRLEDQHRLLKPTAVPSIFHLTEKKRGAGGHGRTRRKDASKATGGVRGHSSAATGRGAAGWSPSSSGNPMAKPESRRLKQAALQGEATPRAAQEAASQEQAQQALERTPGDGLATMVAGSQGKAEASATDAGDESATSSIEGGVTDKSGISMDDFTPPGSGACKFIGSLHSYSFSSKHTRERPSVPREPIDRKRLKKDVEPSCSGSSLGPDKGLAQSPPSSSLTATPQKPSQSPSAPPADVTPKPATEAVQSEHSDASPMSINEVILSASGACKLIDSLHSYCFSSRQNKSQVCCLREQVEKKNGELKSLRQRVSRSDSQVRKLQEKLDELRRVSVPYPSSLLSPSREPPKMNPVVEPLSWMLGTWLSDPPGAGTYPTLQPFQYLEEVHISHVGQPMLNFSFNSFHPDTRKPMHRECGFIRLKPDTNKVAFVSAQNTGVVEVEEGEVNGQELCIASHSIARISFAKEPHVEQITRKFRLNSEGKLEQTVSMATTTQPMTQHLHVTYKKVTP | soluble
3 | MAHHHHHHMDDFPLSLCSSNIRETMFKVTAPLFLALTTSNAIALSRGTSVSVSSEGGKCNEIWYSNGKEMCGSPLAPQSSTVQRALPPAPAPAKKPESSLRSGDEVATQHEERGGLDLRSIASRQPSFDALSATINGERQVGRASGTAIRGGNEGSAEPSSDEGQQRTTELWSGQAEGQVKQMAEGEQRNPGSGDEGQNQGGDVAPLQVAKEGESNMKWPPAQRVILGTVKENAQKETRKDLDDLEQEANSTQVGRTTAHKRHVMLITATLSFICVQRLLV | soluble
4 | VDLGGVRRRISLMARQHGPTAQRHVASPMTVDIARLGRRPGAMFELHDTVHSPARIGLELIAIDQGALLDLDLRVESVSEGVLVTGTVAAPTVGECARCLSPVRGRVQVALTELFAYPDSATDETTEEDEVGRVVDETIDLEQPIIDAVGLELPFSPVCRPDCPGLCPQCGVPLASEPGHRHEQIDPRWAKLVEMLGPESDTLRGER | not soluble
5 | MGSDKIHHHHHHMFRVVICDDEKIQRSILKEFTEKLLSERCLNYQILEFSCGEDLISKYPEKIDIIFLDIQMKDINGIEVAKKIRKFDEKVEIIFTTAFSEYAPQGYEVRAYRYLVKPIEYSNFAMGVNLCIDNLQRKKERYIVLNSKKGFNRILIDSILYVETVKRDLVVHTIGRDYKANMSMKQAEKLLCENGFFRCHTSFIVNLRRIEDLRDNMITINEQFIPISKYRLKDLKVALTSLLCDIMY | not soluble
6 | VAAAPRSPEDRRAQILDVAVRLLETVPFDDLSMDQVAAEAGVSPPLLFHYFKNKQGFRNAVLEASASELQRRMTPDAALPVSGQLRAGVETFADAVIEHPTIYLAVMRMAGSGDERMRQIYRGMRRTFTRWIGASLAEFGVPTTPALEAAISGWQAFMEEIVLSWLDEPTMDRTDMIDLCERAFYHLLPAAGVDVDALDVTR | soluble
7 | MTRFSGKVALVTGSSNGIGRATAVLLAQEGAKVTITGRNADRLEETRQEILKSGVPEDHVLSIATDLATEKGQDELVNSTIQKFGRLDILVNNAGAAFNDDQGRVGVDQDVSVYDRIMQINMRSVVTLTQKAKEHLVKAKGEVVNVSSIGAGPQAQPTFMYYAMSKAALDQYTRSAAIDLIQYGVRVNSVSPGAVVTGFGEAMGMPADMHEKYGHFMESRKECIPCGKMGQPIDIANIIAFLADRKLSSYIIGQSIVADGGSTLVMGMQAHNFMDLLKQ | not soluble
8 | MLKSGRLNFLKLNINSRLLYSTNPQLTKKVIGIDLGTTNSAVAYIRDSNDKKSATIIENDEGQRTTPSIVAFDVKSSPQNKDQMKTLVGMAAKRQNAINSENTFFATKRLIGRAFNDKEVQRDMAVMPYKIVKCESNGQAYLSTSNGLIQSPSQIASILLKYLKQTSEEYLGEKVNLAVITVPAYFNDSQRQATKDAGKLAGLNVLRVINEPTAAALSFGIDDKRNNGLIAVYDLGGGTFDISILDIEDGVFEVRATNGDTHLGGEDFDNVIVNYIIDTFIHENPEITREEITKNRETMQRLKDVSERAKIDLSHVKKTFIELPFVYKSKHLRVPMTEEELDNMTLSLINRTIPPVKQALKDADIEPEDIDEVILVGGMTRMPKIRSVVKDLFGKSPNSSVNPDETVALGAAIQGGILSGEIKNVLLLDVTPLTLGIETFGGAFSPLIPRNTTVPVKKTEIFSTGVDGQAGVDIKVFQGERGLVRNNKLIGDLKLTGITPLPKGIPQIYVTFDIDADGIINVSAAEKSSGKQQSITVIPNSGLSEEEIAKLIEEANANRAQDNLIRQRLELISKADIMISDTENLFKRYEKLISSEKEYSNIVEDIKALRQAIKNFKANENDMSIDVNGIKKATDALQGRALKLFQSATKNQQNQGK | not soluble
9 | MGSDKIHHHHHHMENILEIVNLNKSYNGIPALSNINLSVKAGEIHGIVGANGSGKTTLMNILFGNPIIHETGGYQGQIFFKGNRVNFKNCAEAIRQGIGMVHQEFALIPDMTVGENIKLGRENTHSLTDRLFGRKYSFIDWKQDYENAWQTLKRLGISVAVGIKIMDLSVNIRQFIEIAREIDRSDLKLLILDEPTAVLNKNDGLKLIEILKDMSNSEIGIIFISHRLEEVQYVCDKVSVLRDGKLVSQYAKGNIYVNDLAQDMIGHTINKAAAEKREIKNKPLITFKDFSVEMPGEEVKNLNLSVYKGEILGLTSLSGHGKLALGYGMMDMYPVDGEVYYENKKIVKMNARTNIIKGMYVLPDDRQGLGILADQSLESNIVFTGNQIKNMFIRNSAFNFLGFIDHHKTNLHVYKMMLDLDIKCTSIKQKVKELSGGNQQKVCIARALTVDPKLLFVAEPTRGIDISAKEKILNMLIEINRTRNTTIIIASSELDELKRVCDRIAVMVEGKIFKILSPDSPDVDFGLVLSGEEEVDCEKL | not soluble
10 | MSLKRFIDDHRDVHGVEPICKVLPIAPSTYYAHAARRSDPELRSARAKTDEALMPEIRRVWDENFQVYGVRQLWRQMRREQFAVARCTVQRLMKRQGLRGVIRGKAVRTTVSDAKAPCPLDHVNRQFTSDRPNALWVSDFTDVSTWQGWICVAFVIDVFARRIVGWKASPSMRTELVLDALEQALHARKPVGSERMIHHSDRGVQYVSIRYTERLAEAGLEPSVGSVSDSYDNALAETINGLCKAEVIHRKSSWRTREEVEWATLTWVDWFNNRRVLEPIGNIPPAEAEANYYLISPDLQLQHLRAYREGHHHHHH | soluble
11 | MGSDKIHHHHHHMKKNVQIKGTKSGISIFLSDKASISELQQELSQLLADQKQNPYSGEKLEVQVQIGNRLFSEEEEREISTIIHNNSQMKISAFYSNVMSKDEAKKWKENDQIFSMATIIRSGQVVQVPGDFLLIGDVNPGGQIRSNGNVFVLGNIKGIIHAGFEGDENAVVAGKFLYPSQVRIAGKVYGFDSEDYKEVADTDLFSAFVNDAGEIVIDEIHKIRKIRPEISNFQGGR | not soluble
12 | MGSDKIHHHHHHMHISLGPLLYCWQKQQVTDFYQQVAASQIPLVYLGEAVCSRRREFKWGDYLELAQMLKQAGKEVVISTLALIEAPSEYTELKRQVDNGEFMVEANDMAAVYLANEHKLPFVCGASINNYNRASLDILQRFGMQRFVMPVELSKAWLSQVIQQKPSFEVEVLGHGYLPLAHSARCFTARHKQLTKDHCETVCREYSKGLVAQTQEQQPLLRLNGIQTQSASCLDLRSEITTMAKMGVDVFRVSPSSLDCIATANALVDAINTPENAQHFAISSDANLERTQCNGYWFGEAGLAVHANP | not soluble
13 | GPPSGKTYMGWWGHMGGPKQKGITSYAVSPYAQKPLQGIFHNAVFNSFRRFKSQFLYVLIPAGIYWYWWKNGNEYNEFLYSKAGREELERVNV | soluble
